Measured values from article PMC9280360.
Substitutions are numbered along the chain they refer to. Names may count otherwise. “And” between values parts separate entries of the source, which are not always exact repeats. Equal values may be shown once. Blank lines part the entries; values can stand above or below the binder they belong to.

Target: proprietary Ral effector protein (Ral-BP binding plate of the RalA G-LISA Activation Assay Kit)
Assay: ELISA; RalA G-LISA Activation Assay Kit; purified RalA incubated in the presence or absence of 15 uM GTP for 1.5 h at 25 C, then 50 ng of the RalA/GTP mixture applied to the Ral-BP binding plate (effector immobilised); n = 3

downstream effector binding (G-LISA signal): 3.24 and 3.33
B1: Flag-tagged mutant RalA (RALA c.G482A, p.Arg161Gln) (natural protein)
chain: MAANKPKGQNSLALHKVIMVGSGGVGKSALTLQFMYDEFVEDYEPTKADSYRKKVVLDGEEVQIDILDTAGQEDYAAIRDNYFRSGEGFLCVFSITEMESFAATADFREQILRVKEDENVPFLLVGNKSDLEDKRQVSVEEAKNRAEQWNVNYVETSAKTQANVDKVFFDLMREIRARKMEDSKEKNGKKKRKSLAKRIRERCCIL

downstream effector binding (G-LISA signal): 1.74
B2: Flag-tagged wild-type RalA (RALA, NM_005402) (natural protein)
chain: B1 chain with Q161R
